{"source": "the DeepSol protein solubility set"}
{"experiment": "soluble on expression in E. coli; label from the status in PepcDB or PDB records"}
{"sequence": "SKLVWSPETASKAYIDTVKSCENLETPDAAELIAAMAAGWNVKLIVETWSEGDAIASSIGLNVASKHANAKHICIVQNSRSESAYLQAIQESSSPLNFPETIVAEEPGKAMKKLQGVDFLVVDWRNKEFAAAALKNAAFGNRGAVVVCRNGYSSLRRVLRDRKVVRTVTLPVTGGIEIAHVAARNSGKSGNNKRRWITHVDQRSGEEHVFSI", "soluble on expression in E. coli": "soluble"}
{"sequence": "MEVEAFAHSVAPLAPRLKRVAYSILDDEEAAADVSQEALMRLWINRERLGGYDSIEAVAVTTARRIALDMLRKEGRMEPLPDDLPFSDHAPTPQGVLEQSETMRLVEAAIEALPPLQRMTFRLKEIEGYESEVIARLVGVKVEAVYTNLSRARRALRTALALQLKR", "soluble on expression in E. coli": "not soluble"}
{"sequence": "MSLTMREVAKAAGVSIKTVSNVVNDYEFVSQATRDKVNKAIAELGYTVNVSARNLRRGQTGIIGLAIPDLQMPYFAQLSSLVIEEAKKVGLRVIVEPTQYSRDGELEALHGSQQMMIDGLIYSPLELGQDDVEQLKVDYPLVLVGERIFTDQVDHIATENVEGAKRATQYLLTTGCRRVAVVGVHPGEKVGSAALRYQGYLEALEEAGVEFDDRLVVESGMWHRSDGVRAMNALLDSGVEVDGVVALNDMLASGVMHAIQMHGLHIPDDISVVGFDNSDDSQYLSPALTSIAPGLEAVARLSVKVLKERIDGRDPNADRPGEKVFRKVASSLVVRQSTEGHHHHHH", "soluble on expression in E. coli": "soluble"}
{"sequence": "MPSTRCAHQMSTKKKAERVDNMIAFLKSAVQAQKEKGAQAEQAPGNAMMTSKLLEIWSVPQSTITEMRLLLTLGADPTPLFKDDFGEKTLADRIDNGSVCEECAEMYERTPIQINRSKKVDGVMALCLDGGGMRGLVSVVCLLYASRRLLGDETLPNLFDWFIGTSTGSMLALSMVNKISISECFFQYWDMKSQIFLRGSTVKRLLGDQVAVQTKNIDKVLGDCFPTQTLQECPTRLTIPALDISTAPARLHVFRNYSFTKPFGAPLNEDQDVLFREAARASSAAPTYFEPFIYGNKVLVDGSFVANYPLNVLFKEYDSFSKHQQPIHLAGVLSIGTGEPALAERKYKSGKSIRAKAMNIGHLSTLILEQVVGQDLTAVEMAQDRCHAHNIPFNRLSPKGISVRIDQIDDSKLMDMIWTTLIYLTENVHEIDQLGEMIYKLKSDPTERKRRSNTVL", "soluble on expression in E. coli": "not soluble"}
{"sequence": "MSLSGSITVPNYSDTNRVPGLYFALDNSKANTASVTRRVLILGQTIAGSGAPNVATLSAGYSDAVAKYGAASQCARMVSAYRAIDAQGEVWVLPLADDTSAQAATGKVTVSGTATSAGTLPLYVGDQLISVAVDTGDTAATVAANIATATAAVSGLPAGASAAEGVVTFTALNKGQSGNDILLGVALLGTAGGQAVPDGLTIALTQFSGGTADPTTLATVLALQGERVYDLIIHPYTDSGSLTALKIWLNDTAGRWSPMLQLYGHAITAYRGTYGAATSLGLAQNDQHATIMPIGDSPSDPLTWAAQIGARTAMSMRSNPALPITAVSLTVMPPTDVGRYSSEQRNSLLYDGLSTFTVDDSGTVNIERLVTTYQTNASGLPDNSYLDIETMLTAEICMQDMRSYLAGQYGGCILVADGTKISAGAKATTAKLIGKACASRYRWQTTQLWVQNADNFAANIVAENAGNGVVKLLMPYDFANQLRIIAGSVQFVKSEGHHHHHH", "soluble on expression in E. coli": "soluble"}
{"sequence": "MSFNTIIDWNSCTAEQQRQLLMRPAISASESITRTVNDILDNVKARGDEALREYSAKFDKTTVTALKVSAEEIAAASERLSDELKQAMAVAVKNIETFHTAQKLPPVDVETQPGVRCQQVTRPVASVGLYIPGGSAPLFSTVLMLATPASIAGCKKVVLCSPPPIADEILYAAQLCGVQDVFNVGGAQAIAALAFGTESVPKVDKIFGPGNAFVTEAKRQVSQRLDGAAIDMPAGPSEVLVIADSGATPDFVASDLLSQAEHGPDSQVILLTPAADMARRVAEAVERQLAELPRAETARQALNASRLIVTKDLAQCVEISNQYGPEHLIIQTRNARELVDSITSAGSVFLGDWSPESAGDYASGTNHVLPTYGYTATCSSLGLADFQKRMTVQELSKEGFSALASTIETLAAAERLTAHKNAVTLRVNALKEQA", "soluble on expression in E. coli": "soluble"}
{"sequence": "PQEVESYVHRIGRTGRAGKEGTAITFITPQEYRRLLQIQKAVKKEIKKEKLPDVKDVIQAKKFRIIDDIGQILIDNDYDKFKKLAKDLLKMEDAENIVASLLKLSYSDVLDESNYNEISPVKMEDTGKTRLFIAMGRKDGMTPK", "soluble on expression in E. coli": "not soluble"}
{"sequence": "MSLEGYTVIIKTGNEDLDRRLTGLPFPALIMIEGDHGTGKSVLAAQICYGLLISDKKGYVITTEQTTKDYLVKMRDVKINLIPFFIKGSLGVAPLNTNKFNWNSDLANKILDLIIDFVKKRKNIEFLIIDSLSVLATFAEERQILQFMKESRVLVDLGKLILFTIHPDVFSEEIKSRITSIVDVYFKLSAVTIGGRRIKVLERVKTVGGIQGSDTISFDIDPALGIKVIPLSLSRAEGHHHHHH", "soluble on expression in E. coli": "soluble"}
{"sequence": "MSLQKFSDEQRSQIETIIKEYLVSHPEVLEEASEELGKRQAAAQAEKHQQAIKDNADIIYNSPRGVTVGNKNGDVTMVEFFDYNCGYCKRAMTDMMELMKDDPNLKVVLKEFPVLGPPSVEAAQVAIAVRMQDPTGKKYLDFHQKLLGGRGQADKARALAAAKDAGLDPAKIEKDMNSPEVRATIEESFKLAESMGMNGTPSYVIGKQVVVGAVGLDTLRQKINTARCGKDKCEGHHHHHH", "soluble on expression in E. coli": "soluble"}
{"sequence": "MDFITDMSKNQRLELQNRLAQYETSLMVMSHNGDVPVITGFNVMRVTTMLDALKVELPAVAVLGDDAQDLAYVFGARPLAVGVNIIRVVDVPGQQPSALVDAELGALHEVSMVRVLNDIADEQLVKANM", "soluble on expression in E. coli": "soluble"}
{"sequence": "SASVLKETAGLYETLKAEWNKKNPNLNKCGELLSKLKISLLELNFLPTTGTKLTKQQLILARDVLEIGALWSILKKDIPSFERYMAQLKCYYFDYKDELPESAYRHQLLGLNLLFLLSQNRVSEFHTELERLSAKDIQTNVYIRHPVSLEQYLMEGSYNKVFLAKGNIPAESYTFFIDTLLDTIRDEIAGCIEKAYEQIQFNEATRVLFFSSPKKMTDYAKKRNWTQSPDGYYSFSTQHQKTEEVTIPSTELAKQVIEYARQLEMIV", "soluble on expression in E. coli": "soluble"}
{"sequence": "MGSSHHHHHHGKTIFVIVPTNEEQVAFLEALAKQDELNFDWQNPPTEPGQPVVILIPSDMVEWFLEMLKAKGIPFTVYVEEGGSENLYFQGGGGGGTCMMGLEIRPKVVSFAQEKALALRQENAASLTQHYRNVWFEQMNVMKFGSNCFTKGQLSRLFFCYPDPHWKRKNIRRRIISPGLVQEYAYWLRHGGLVYTVSDVAELEEWMVQCLDDSPLFRRLAEAELCTPEHKQVLEIVTGASEDAQRTARKGLQKHFAVHMRI", "soluble on expression in E. coli": "not soluble"}
{"sequence": "MAHHHHHHMAAACGCRSLLSRDMPRRFPMCVASGTMCRRLCDCRMEGEERRELRERRCQESRWASCRRAHCPPSPAPPCRAPSITPQHRSRRHQHTARQRMPPPSRVRPEGTRPLLRSEESHRVAQRRAQNLLADSAHDTGQWTLSVCVVEDTAVESLLSSGWTVG", "soluble on expression in E. coli": "not soluble"}
{"sequence": "MSLGVNFQPVAFTGRIDQSQREKKRITIPDVMKLVEEQTGGEIPCNAWYPVSFVVPISRFLSAMRNIPIPELTAHPHCGAGTYVFYEEGHFIPITNFFDVESFIELLKEITPEINGRVSRVLSLAKVIKQVPKFIDEKKGPKSVNTTRMILDLLKKGDMENTSRFHRNTLFLGTMHFQDLYNIDLERVKKCGVHYATPDGRIIPFCTYNEGHHHHHH", "soluble on expression in E. coli": "not soluble"}
{"sequence": "GSKAEKTLGDFAAEYAKSNRSTCKGCMEKIEKGQVRLSKKMVDPEKPQLGMIDRWYHPGCFVKNREELGFRPEYSASQLKGFSLLATEDKEALKKQLPGVKSEGKRKGDEVDGVDEVAKKK", "soluble on expression in E. coli": "soluble"}
{"sequence": "MGSDKIHHHHHHMSNEHQLLVGLLKKLKDDALILPTLPEVAMRVQEVVGRPDSSLKQVAEIIGQDAAISARIIKVANSALYSRGVPAENINSAVTRIGLTQIKSIATSVAMEQLFISTNEMVWEVMDEVWRTSIDVTAAACSLLQIYNKKHPGSGLNYDTLTLAGLVHNIGALPVLTEAEAHPEMFTTIEHLRSLVRKMQGPIGRAVLKSWDFAPEVMEVVERWADLPYLGDHVSYLDFIRAAAFYTGELRAGNELEQRLDVFVKRGLPVSPEDLGSDAFLDSYHSIKASYE", "soluble on expression in E. coli": "not soluble"}
{"sequence": "SASSIICQEHCQISGQAKIDILLVGDVTVGYLADTVQKLFANIAEVTITISDTKEAAALLDDCIFNMVLLKVPSSLSAEELEAIKLIRFGKKKNTHSLFVFIIPENFKGCISGHGMDIALTEPLTMEKMSNVVKYWTTCPSNTVKTENATGPEELGLPLQRSYSEHLGYFPTDLFACSESLRNGNGLELNASLSEFEKNKKISLLHSSKEKLRRLYRKHSSFCFW", "soluble on expression in E. coli": "soluble"}
{"sequence": "MAHHHHHHMSIPLENWGQLKLSVAKPELKSEDGGDVKRDECVLELLALPKGKAKDNPNYVPRPILSIPISAIASASGTTKNDVSLTMRPAATAGAEDLELRSIRFAVPNVCVGYEETEMAGKVILQDIQSSMMQYQEQFLQRHGSGGQGGKLLALAAMGSGQAKHTDEVVVATFDDVLLSYPSGKYKIVISNYNVVLEDKKKGTSSGLLSFSLSEIQNLFLCDVPVYFSPTEEVDANSLPQYVVLILKNPLKIRSTAYNHVVISCPAGLTLDEEHPWRCELKTQDEINKTLQLPPSKEGEEPPLVPTMSGRVSDILTRTFKAIAKVPAYGGINKEYKSVLTSHSQSSMRCLFHGAEGLLYIVNSGFLYLHRPATRILFNEVARVELDESESGQATFQLTVFATGAKGDDKYVFSGIAKEEKNGLLSYLATKVKVVHTGGDAMESDDDDEKDDTSDEDESDDSDYDDSDTEDDDSSDDGGDHDSSRKRKREDKKHEKDKKHKKDKKHKKDKKHKKDKKHKKDKKHKKDKKHKKDKKHKKDRKHKKDKHEKSDA", "soluble on expression in E. coli": "soluble"}
{"sequence": "MSTNPFAILRLPESALRKSINQMGLMEQFSLSVLSNKTKHAVTMLPEVKNDVSITMTSSLELLLSNHSQDVDFIFEMDSHYPNVEIRQRFDNARCRFTQLSIPGFTVKHWIEHIVDVFCKNQGVALIFESIMRERFYELYEIIKNIKIVHLEPFSSQIQDYQRLTLFPSLEWLTVIGVDEAPIGTPILIQNFEGFIIFPNIQWKIDDVLISNFSNLRMWHRTFSVQDLNLFMRQWIKGSMPRLEEFDVILSHSNQHKLVETDLFKSIKYTVKENENCKINVIKRRDGAKASVCFGGKSSYEFHFTVESEPD", "soluble on expression in E. coli": "not soluble"}
{"sequence": "MGISPDAASKLYTVKFQPDPIDKKGWSVIDFNNCCTQDGGWYLNMGWGVESLIDNNPGTQWLCRWDVKEPLPYYFVFDMGKEYTLFRFGFANPVAPAAHVWAGTSKAGYVEASIDNENWVKLKDWTSPKIGEPNVNMDVPATQARYIRFVITDTYPTYDGLRVSLGEVYAWGLEHHHHHH", "soluble on expression in E. coli": "soluble"}
{"sequence": "MSQKRQTKFQNGKSKTSENSSAKREKGMVVNSKEISDAVGQSKFVLENLRHYTVHPNLAQYYKPLKATALQKFLAQNRKNTSFMLKVTQYDQDKTLLIMTNNPPPCSITQQDKESASKYFSKELLLKVMESHHQHKPTENLWLPRMPQKKKLRSKLKPIFPLILSDDPTSKREQWFRFSTDNDFKSEGKYSKVYALRTQKKMYPQLTFAPVHERDMRKDASKKSASERPISKVIREPLTLASLLEDMPTRTAPGESAFRNGRAPQWIIKKATVIG", "soluble on expression in E. coli": "soluble"}
{"sequence": "MRGSHHHHHHGSIEGRSAVTCDDYYYGFGCNKFCRPRDDFFGHYACDQNGNKTCMEGWMGPECNRAICRQGCSPKHGSCKLPGDCRCQYGWQGLYCDKCIPHPGCVHGICNEPWQCLCETNWGGQLCDKDLNYCGTHQPCLNGGTCSNTGPDKYQCSCPEGYSGPNCEI", "soluble on expression in E. coli": "soluble"}
{"sequence": "MGSDKIHHHHHHMLTTRKALYYLDKGKTKEAIHLLETCWNQKVTAENKRDIFTATVLLSDVLYQSGERFPEIYQKLMSILEEMQDLEAVDFEREKAKQIFAELDEYFSEVGTFFQGHSLAELWLKFDSENDYKDVYPTPQRVAAIEAELGYKLPKSYIYLMRHTQNGGIVSTGSVPTTEPSSWSENCVAITGIMGIGDCGVSTLNGMHNTNFWTEEWGYPDVGLAIADCPSAGHDMVFLDYRNCGKTGEPAVVHIDQEGDYKILKLADNFEEFILSLYREEY", "soluble on expression in E. coli": "not soluble"}
